Assay results reported in article PMC2930196.

Molecular target: Phospholipid transfer protein (PLTP) in human plasma (human (endogenous in plasma)) (UniProt P55058)
Assay: co-IP

Sequence of UniProt P55058 (P55058 18-493): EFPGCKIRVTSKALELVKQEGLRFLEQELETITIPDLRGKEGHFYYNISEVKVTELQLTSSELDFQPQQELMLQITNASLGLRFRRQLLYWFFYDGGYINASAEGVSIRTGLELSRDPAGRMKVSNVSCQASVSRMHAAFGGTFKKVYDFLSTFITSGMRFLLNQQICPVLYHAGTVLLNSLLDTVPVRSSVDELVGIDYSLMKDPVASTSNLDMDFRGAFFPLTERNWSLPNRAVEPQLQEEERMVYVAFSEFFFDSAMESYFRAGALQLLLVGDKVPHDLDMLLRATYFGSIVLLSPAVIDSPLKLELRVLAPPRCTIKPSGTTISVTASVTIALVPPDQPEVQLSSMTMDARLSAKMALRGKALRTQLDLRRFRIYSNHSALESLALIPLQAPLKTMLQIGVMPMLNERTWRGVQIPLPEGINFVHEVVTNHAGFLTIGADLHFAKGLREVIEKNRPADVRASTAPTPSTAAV

- molar ratio of clusterin, PLTP and apoA-I in the isolated PLTP complexes (ELISA): 5
Substance: Clusterin (apoJ) in human plasma (natural protein)
